{"source": "paper PMC4797282", "about": "(Nucleic Acids Research, 2016)", "proteins": {"B1": {"name": "CpMgm101-NoTag (untagged full-length mature Candida parapsilosis Mgm101) (natural protein, UniProt G8B839 30-266, looked up)", "chain": "VPKTASAKTTSKLAPSITTEDEVAEQDPSLQEPQSATSTASFAFHDAPPETRSVLNSSTNNNIDWSDSYHGLGSQPFSREIADILLAPIKDQDIEIKPDGLLYLPEIKYRRILNKAFGPGGWGLVPRTESLITKSQISREYGLICHGRLISIARGEQDYFGGEEKVTTALEGCKSNALMRCCKDLGIASELWDPGFIRKWKAKYCEEVFVEHVVNKKKKKLWKLKSNKKIEYPYKQL"}}, "molecular_target": "the molecule itself", "test": "SEC-MALS", "data": [{"protein": "B1", "values": [{"measurement": "stoichiometry N", "result": 3}]}]}
